# In the supplement of paper PMC10126150:
# ± gives the standard deviation of the averaged measurements.
# System: ATP
# Assay: switch fluorescence ratio, 500 uM ATP over buffer (Cy3 cluster intensity, sum of 5 cycles each) (fold (ratio)); higher = stronger signal-on switching upon ATP binding; sequences stand for … in TCGTCGGCAGCGTCAGATGTGTATAAGAGACAGTTTTTTTTTTTTTTTTTTTTTTTTT…TC
# Settings: aptamer strand: ATP DNA aptamer (quencher-CACCTGGGGGAGTATTGCGGAGGAAGG + anchor), 100 nM annealed; ATP concentration: 500 uM
# Outline: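 Five buffer/ATP imaging cycles were run on Cy3-labelled switching-strand clusters on a modified Illumina MiSeq flow-cell, with NaOH stripping and re-annealing between cycles. In each cycle, clusters annealed to 100 nM quencher-labelled ATP aptamer were imaged in selection buffer, then after 15 min with 500 uM ATP at 22 °C. Per cluster, the fluorescence ratio is summed target-cycle over summed buffer-cycle Cy3 intensity, averaged per switch-domain sequence. Only clusters within 100-1000 RFU were kept.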
# 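Further: ATP exposure 15 min at 22 °C before imaging.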
row,Sequence,switch fluorescence ratio
1,ACTGGGGGAG,1.02 ± 0.015
2,GCCAGTGTTT,1.02 ± 0.056
3,ATCAACGGAA,1.08 ± 0.013
4,TTTATTTAGC,1.02 ± 0.034
5,GTTTTAATTC,0.9628 ± 0.0036
6,GGGGGGGCTG,1.06 ± 0.4
7,CATCGCATTT,2.32 ± 0.91
8,TTGTTTTATG,0.998 ± 0.022
9,CGGTGGATCA,0.992 ± 0.017
10,CGGACGGGTG,1.02 ± 0.018
11,GCCCGCAGAA,1.76 ± 0.024
12,GGTTTCGATG,1 ± 0.023
13,GGTTCTATAG,0.993 ± 0.02
14,TATCAACTTG,1.02 ± 0.037
15,TTTTTTTTTT,1.01 ± 0.083
16,AGGTTGCGAT,1.01 ± 0.013
17,TTATCACTCG,1.01 ± 0.0054
18,ATATTAAGAT,0.988 ± 0.028
19,TGACCTCTTA,0.992 ± 0.024
20,GAGTATTGGT,0.9817 ± 0.0094
21,AAGGTATCGG,0.987 ± 0.037
22,CAATATGCAG,0.962 ± 0.012
23,TTCCATGGCC,1.04 ± 0.044
24,ATTGGCTGGT,0.9998 ± 0.0052
25,TTAACTTGGG,0.976 ± 0.013

row,Sequence,switch fluorescence ratio
1,AAATGAGCTT,0.986 ± 0.029
2,TGGGGTCTGA,0.974 ± 0.017
3,TGGGTTGAGG,0.997 ± 0.016
4,GGGAATTTTC,1.004 ± 0.0074
5,GAATAGGTAA,1.023 ± 0.0038
6,TGGGAAAGCC,0.981 ± 0.012
7,GCTGTTACGG,0.983 ± 0.016
8,AGAAAATTGT,1.01 ± 0.025
9,GAAATGATTC,1 ± 0.024
10,TAGGTGGCGG,0.9906 ± 0.0071
11,GCCGGGTCCG,0.9938 ± 0.0011
12,AATAAGGT,1.003 ± 0.0056
13,AAGCGGTTAA,1.011 ± 0.0022
14,GACCATTTTT,1.02 ± 0.038
15,TAGGGTATAT,0.986 ± 0.015
16,AAAGAGCGGG,1.02 ± 0.061
17,TTCGGCTCTC,1.63 ± 0.86
18,CGCTTGGGGT,0.9626 ± 0.0092
19,AACGGTACCG,0.981 ± 0.014
20,AGTGGTGCCG,0.989 ± 0.02
21,CAATTTTTCG,1.02 ± 0.048
22,AGAGTTTGTG,0.978 ± 0.015
23,AGATATGAGA,1.031 ± 0.0075
24,CGGCCTGCG,1.02 ± 0.1
25,CGGGTTGGAA,0.9731 ± 0.0091

row,Sequence,switch fluorescence ratio
1,AAGTCGGTTA,1 ± 0.02
2,GGTGAGGGGG,1 ± 0.068
3,GAGTACCCGG,1 ± 0.018
4,CTGCTCTGGG,1.02 ± 0.017
5,GGGAGCGTTG,1.01 ± 0.016
6,TATTTTGGAG,0.985 ± 0.035
7,AGGATTGAAC,0.991 ± 0.018
8,TATTCAGGGA,1.02 ± 0.02
9,AGTCGCGGAG,1 ± 0.08
10,CTAGTATGGA,1.02 ± 0.031
11,GTGTTTTCTT,1.006 ± 0.0025
12,TGCCTAACTT,1.019 ± 0.0066
13,AGTGATTGGG,0.995 ± 0.031
14,CGTGGGAGAA,1.09 ± 0.084
15,AATTATCTGC,0.976 ± 0.015
16,CTGGTCGCTG,1.01 ± 0.046
17,TAACTGCATT,1.16 ± 0.14
18,TTTTTTAACT,1 ± 0.046
19,CGATGTGTAC,2.71 ± 0.17
20,ACAATGAAGA,1.01 ± 0.039
21,GATGGGGGCA,1 ± 0.086
22,TCATGATGTA,0.9848 ± 0.0061
23,AGACGAAGT,1 ± 0.019
24,GTTGTCGGGT,1.05 ± 0.12
25,GGAGCAAAGG,2.63 ± 0.1

row,Sequence,switch fluorescence ratio
1,TTTTATTACT,2.27 ± 1.8
2,ACTCTGGTCA,0.986 ± 0.027
3,TAAACCGAGC,1.73 ± 0.27
4,ATTTCGAATG,0.9827 ± 0.0076
5,ACGCTGTTGA,1.03 ± 0.047
6,AGGGGGGCT,1.01 ± 0.031
7,ATAGGCACAT,1.03 ± 0.029
8,GAATGGGATA,1.04 ± 0.084
9,AGGCTGCGTT,1.02 ± 0.038
10,GAGGCAAGG,1.341 ± 0.0038
11,TCCATTGTCC,1.08 ± 0.052
12,GCCATTTTGA,0.956 ± 0.037
13,TTTTACCCTT,1.04 ± 0.04
14,GTTACCCGA,0.98 ± 0.016
15,TAGTCCGTAA,2.06 ± 0.035
16,CATCTGCGTT,1.58 ± 0.11
17,AATTAGGAGT,1.06 ± 0.079
18,GTTCCTTGGA,1.01 ± 0.045
19,TAGGAAAAAG,0.975 ± 0.013
20,AAAAAGGGTG,1 ± 0.045
21,TCACTGGGGA,0.995 ± 0.03
22,AACGGGAGAT,0.991 ± 0.048
23,AAGGGGCAGC,0.9903 ± 0.0069
24,TTTTGGTATT,1.02 ± 0.044
25,TGATATTTTG,1 ± 0.016
